{"source": "the nanobody polyreactivity screen of Harvey et al. (2022)", "data": [{"assay": "yeast display, Sf9 membrane polyspecificity reagent, FACS + sequencing; frameworks hold sequencing errors", "summary_of_the_method": "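After 36–48 hours of galactose induction, yeast (Saccharomyces cerevisiae BJ5465) displaying a synthetic nanobody library were stained at 4 °C for 1 hour with 10% biotinylated, detergent-solubilized Sf9 membrane reagent. Streptavidin microbeads enriched the stained cells before FACS sorting into low and high (top ~1%) gates on anti-HA and streptavidin fluorescence. Each clone's polyreactivity label reflects its gate of origin.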", "values": [{"sequence": "QVQHVESGGGLVQAGGSLRLSCAASGSTFRTYGMGWYRQAPGKERELVAGITRGGSTTYADSVKGRFTISRDNAKNTVYLQMNSLKPEDTAVYYCNAGYVRVRAHNYDYWGQGTQVTVSS", "polyreactivity (PSR sort gate)": "high polyreactivity"}, {"sequence": "QVQHVESGGGLVQAGGSLRLSCAASGSTFSQYGMGWYRQAPGKEREFVAGISGSGGRTYYADSVKGRFTSSRDNAKNTVYLQMNSLKPEDTAVYYCAAETVYKWWYDYYYWGQGTQVTVSS", "polyreactivity (PSR sort gate)": "high polyreactivity"}, {"sequence": "QVQHVESGGGLVQAGGSLRLSCAASGSTFSYKVMGWYRQAPGKERELVAAISQSGGSTYYADSVKGRFTISRDNAKNTVYLHMNSLKPEDTAVYYCAAERRYYYGWGSFDYWGQGTQVTVSS", "polyreactivity (PSR sort gate)": "low polyreactivity"}, {"sequence": "QVQHVESGGGLVQAGGSLRLSCAASGSTIRYYTMGWYRQPPGKERELVAAITYSGGSTYYADSVKGRFTISRDNAKNTVYLQKNSLKPEDTAVYYCAKRWSQPKYDYWGQGTQVTVSS", "polyreactivity (PSR sort gate)": "high polyreactivity"}, {"sequence": "QVQHVESGGGLVQAGGSLRLSCAASGSTIYWYAMGWYRQAPGKERELVAAISLSGGSTYYADSVKGRFTISRDNAKNTVYLQMNSLKPEDTAVYYCAARTSYYVYRHPSGRYDYWGQGTQVSVSS", "polyreactivity (PSR sort gate)": "low polyreactivity"}, {"sequence": "QVQHVESGGGLVQAGGSLRLSCAASGSTSPGYAMGWSRQAPGKERELVAAITFRGTRTYYADSVKGRFTISRDNAKNTVYLQMNSQKPEDTAVYYCNVVGYGPNRGRVDYWGQGTQVTVSS", "polyreactivity (PSR sort gate)": "high polyreactivity"}, {"sequence": "QVQHVESGGGLVQAGGSLRLSCAASGYISVGYAMGWSRQAPGKERELVAAITESGGSTYYADSVKGRFTISRDNAKNTVYLQMNSLKPEDTAVYYCAADVIYEDRMDYWGQGTQVTVSS", "polyreactivity (PSR sort gate)": "low polyreactivity"}, {"sequence": "QVQHVESGGGLVQAGGSLRLSCAAYGFTFVRYAKGWYRQAPGKEREFVASISARGGNTFYADSVKGRFTISRDNAKNTVFLQMNSLKPEDTAVYYCAKRGPYGTGYGYWGQGTQVTVSS", "polyreactivity (PSR sort gate)": "high polyreactivity"}, {"sequence": "QVQHVESGGGLVQAGGSLRLSCAAYYAMGWYRQAPGKERELVAAISSTGRTNYADSVKGRFTISRDNAKNTVYLQMNSLKPEDTAVYYCNAGDPSGMDYWGQGTQVTVSS", "polyreactivity (PSR sort gate)": "low polyreactivity"}, {"sequence": "QVQHVESGGGLVQAGGSLRLSCASSGSTFWAYAMGWYRLAPGKERELVATITGSVGGTYYADSVKGRFTISRDNAKNTVYLQMNSLKPEDTAVYYCATDAYVKGVYEISEDRVDYWGQGTQVTVSS", "polyreactivity (PSR sort gate)": "low polyreactivity"}, {"sequence": "QVQHVESGGGLVQAGGSLRLSCDASGLTISWYAMGWYRQAPGKEREMVAAISKRGGSTYYADSVKGRFTISRDNAKNTVYLQMNSLKPEDTAVYYCNARSPYTGWTLDYWGQGTQVTVSS", "polyreactivity (PSR sort gate)": "high polyreactivity"}, {"sequence": "QVQHVESGGGLVQAGGSLRLSCDASGRIFAWYAMGWYRHAPGKERELVASISSGGRTNYADSVKGRFTISRDIAKNTVYLQMNSLKPVDTAVYYCNVAIVWPWYGRWFQEYDYWGQGTQVTVSS", "polyreactivity (PSR sort gate)": "low polyreactivity"}, {"sequence": "QVQHVESGGGLVQAGGSLRLSCPASGSIIYYNTMGWYRQAPGKERELVAGISWGGGRTYYADSVKGRFTISRDNAKNTVYLQMNSLKPEDTAVYYCNAVSKYDYGYWGQGTQVTVSS", "polyreactivity (PSR sort gate)": "high polyreactivity"}, {"sequence": "QVQHVESGGGLVQAGGSLRLSSAASGRIFSWNAMVWYRQAPGKERELVAAITNGGGTYYADSVKGRFTISRDNAKNTVYLQMNSLKPEDTAVYYCNAYRRKLWYPTGMYWGQGTQVTVSS", "polyreactivity (PSR sort gate)": "high polyreactivity"}, {"sequence": "QVQHVESGGGLVQAGGSLRLSSAASGSIFSYNAMGWYRQSPGKERELVAAIRASGGDTYYADSVKGRFTISRDNAKNTVYLQMNSLKPEDTAVYYCAARTYSHHYASHGYWGQGTQVTVSS", "polyreactivity (PSR sort gate)": "low polyreactivity"}, {"sequence": "QVQHVESGGGLVQAGGSLRLTCAATGSTFRDNAMRWYRQAPGKERELVAAIRIGGDGTYYADSVKGRFTISRDNAKNTVYLQMNSLKPEDTAVYYCAVDTEKGWRMYYWGQGTQVTVSS", "polyreactivity (PSR sort gate)": "low polyreactivity"}, {"sequence": "QVQHVESGGGLVQAGGSLRVSCAASGFIFSAYAMGRYRKATGKERELVAAISSGGSTYYADSVKGRFTISRDNAKNTVYLQMNSLKPEDTEVYYCAAVYTGRYRYDYWGQGTHVTVSS", "polyreactivity (PSR sort gate)": "low polyreactivity"}, {"sequence": "QVQHVESGGGLVQAGGSLSLRCAASGSTLPYYAMGGYRPAPGKEREFVAAISSSGGSTYYADSVKGRFTISRDNAKYTVYLQMNSLKPEDTAVYYCNAVLYARQRDRWARYDYWGQGTQVTVSS", "polyreactivity (PSR sort gate)": "high polyreactivity"}, {"sequence": "QVQHVESGGGLVQAGSLRLSCAASGSTFPYNAMGWYREAPGKERELVATISWSGGSTYYADSVKGRFTISRDNAKNTVYLQMNSLKPEDTAVYYCNATYGSSYDYWGQGTQVTVSS", "polyreactivity (PSR sort gate)": "low polyreactivity"}, {"sequence": "QVQHVESGGGLVQAVGSLRLSFAASGSIFRGYAMGGYRPAPGKERELVAAIRYSGARTYYADSVKGRFTISRDNAKNTVYLQMNSLKPEDTAVYYCNARSYSRTHYDYWGQGTQVTVSS", "polyreactivity (PSR sort gate)": "high polyreactivity"}, {"sequence": "QVQHVESGGGLVQEGGSLRLSCAASGITFGRNTMGWYRQAPGKERELVAAIDSGGNTYADSVKGRFTISRDNAKNTVYLQMNSLKPVDTAVYSCAVDGGEFSSYGYWGQGTQVTVSS", "polyreactivity (PSR sort gate)": "low polyreactivity"}, {"sequence": "QVQHVESGGGLVQPGGSLRLSCAASGYTFYANAMGWYRQAPGKEREFVASITWSGGSSYYADSVKGRFTISRDNAKNTVYLHLNSLKPEDTAVYYCAAESWFKYDYWGQGTQVTLSS", "polyreactivity (PSR sort gate)": "low polyreactivity"}, {"sequence": "QVQHVESGGGVVQAGRSLRLRCDASGFILWYYTMGWYRPAPGKERELVAAISRGGTTYYADSVKGRFTISRDNAKKSVYLQMTSLKPEDTAVYYCNAPDNTHGIVLYDYWGQGTQVTVSS", "polyreactivity (PSR sort gate)": "low polyreactivity"}, {"sequence": "QVQHVESGGRLVQAGGSLRLSCAASGRTFPQYAMGWYRQAPGKERELVAAITSGDSTNYSDSVKGRFTISRDNAKNTVYLQMNSLKPEDTAVYYCAAVYYYSKWYTPYEDVYWGQGTQVTVSS", "polyreactivity (PSR sort gate)": "low polyreactivity"}, {"sequence": "QVQHVESGRGLVQAGGILRLSCAASGRIFRMNAMGWYRQATGKERELDAAITWIGGRTYYADSVKGRFTISRDNAKNTVYLQMNSLKPEDTAVYYCAAAYPLDFWFGFEYDYWGQGTQGTVSS", "polyreactivity (PSR sort gate)": "high polyreactivity"}, {"sequence": "QVQHVESGRGLVQAGGSLRLICAASGRTFGRNAMGWYRQAPGQERELVAAITSGGSTSYADSVKGRFTISRDNAKNPVYLQMNSLKPEDTAVYYCRQFSVWGYDYWGQGTQLTVSS", "polyreactivity (PSR sort gate)": "high polyreactivity"}, {"sequence": "QVQHVESGRGLVQAGGSLRLSCAASGITFRYYAMGWYRQAPGKERELVAAISRGTSTKYADSVKGRFTISRDNAKNTVYLQMNSQKPEDTAVYYCAVYGYWSKSDYWGQGTQVTVSS", "polyreactivity (PSR sort gate)": "low polyreactivity"}, {"sequence": "QVQHVESGRGLVQAGGSLRLSCAASGSIFSSYARGWSREAPGKERELVAAISQSGGDTYYADSVKGRFTISRDNAKNTVYLQMKSLKPEDTAVYYCAASVWYYPMDYWGQGTQVTVSS", "polyreactivity (PSR sort gate)": "low polyreactivity"}, {"sequence": "QVQHVESGRGLVQAGGSLRLSCAGSGFIFYKYAMGWYRQAPGKERELVAAITRGGSTNYADSVKGRFTISRDTAKNTVFLQMNSLKPEDTAVYYCAAGNRYGVRQLYQIVTRYYWGQGTQVTVSS", "polyreactivity (PSR sort gate)": "high polyreactivity"}, {"sequence": "QVQHVESGVGLDQAGGSLRLSCAASGSIFYWNAMGWYRQAPGKEREFVATITITTSTNYADSVKGRFTISRDNAKNPVNLQMNSLKPEDTAVYYCNAGAPYRYLDEYNYWGQGTKVTVSS", "polyreactivity (PSR sort gate)": "low polyreactivity"}, {"sequence": "QVQHVESGVGLVQAGGSLRLSCAASGFIFTINAMGWYRQAPGKERELVAAISWSGGRTYYADSVKGRFTISRDNAKNTVYLQMNSLNPEDTAVYYCNAYPATQYDYESWGQGTQGTVSS", "polyreactivity (PSR sort gate)": "high polyreactivity"}, {"sequence": "QVQHVESGVGLVQAGGSLRLSCAASGRIFVFYTMGWYIQAPGKERELVARISSGGSKNYADSVKGRFTISRDNAKNTVYLQMNSLKPEDTAVYYCNAAYARGRAGYYYWGQGTQVTVSS", "polyreactivity (PSR sort gate)": "high polyreactivity"}, {"sequence": "QVQHVESRGGLVQAGGSLRLSCAASGSTFDGNAMGWYRQAPGTETELVAGISYRGGSTYYADSVKGRFTISRDYAKNSVYLQMNRLKPEDTAVYYCAADDYVYWLFDYWGQGTQVTVSS", "polyreactivity (PSR sort gate)": "low polyreactivity"}, {"sequence": "QVQHVESVGGLVQAGGSLRLSCAASVSTFYFYAMGWYRQAPGKERELVAVISSGGRTYYADSVKGRFTISRDKAKNTVYLQMNSLKPEDTAVYYCAASWPSSLTYYYWGQGTQVTVSS", "polyreactivity (PSR sort gate)": "low polyreactivity"}, {"sequence": "QVQHVESVGRLVQAGGSLRLSCAASGFTFKYYAMGWYRQAPGKERELVAVISSSGGSTYYADSVKGRFTISRDNAKNTVYLQMNSLKPEDTAVYYCAAELVYRYFVKDADDYWGQGTQVTVSS", "polyreactivity (PSR sort gate)": "low polyreactivity"}, {"sequence": "QVQHVETGGGLVQAGGSHRLSCAASGLIFDYNAMGWYTQAPRKERELDADISSGGSTYYADSVKGRFTISSDNGKNSVYLQMNSLKTEDTAVYYCATRRQAQYTRYYGSRQFYYWGQGTQVTVSS", "polyreactivity (PSR sort gate)": "high polyreactivity"}, {"sequence": "QVQHVETGGGLVQAGGSLRLSCAASGLAFAMGWYSQAPGTERELVASITGSGDSTYYADSVKGRFTISRDNAKNTVYLQMNSQKPEDTAVYYCGARTYYNYAPRYYYWGQGTQVTVSS", "polyreactivity (PSR sort gate)": "low polyreactivity"}, {"sequence": "QVQHVQSGGGLVQAGGSLRLSCAASGYIFWSYEIGGYRQAPGKERELDATITSGDSTYYADSVKGRFTISRDNAKNTVYLQMKSLKPEDTALDYCAACTYYRLTYWLREYDYSGQGTQVTVSS", "polyreactivity (PSR sort gate)": "low polyreactivity"}, {"sequence": "QVQIEESGGGLVQAGGSLRLSCAASGRTFNFYAMGWYRQATGKERELVAAISHGDSTYYADSVKGRFTISRDNAKNTVYLQMNSLKPEDTAVYYCAASQKYYLRKYEYWGQGTQVTVSS", "polyreactivity (PSR sort gate)": "low polyreactivity"}, {"sequence": "QVQIEESGGGLVQAGRSHRLSCAASGSTFGSYAMRWYRQAPGKERELVAAISASGGSTYYADSVKGRFTISRDNAKHTVYLQMNSLKPEDTAVFYCATVYYSARYNYWGQGTQVTVSS", "polyreactivity (PSR sort gate)": "high polyreactivity"}, {"sequence": "QVQIGESGGGLVQAGGSLRLSCAASGSTFWRYAMGWDRPATGKECELVASITGGGGSTYYADSVKGRFTISRDNAKNTVDLQMHRLKPEDNAVYSCNARRYYRVDSYDYWGQGTQVTVSS", "polyreactivity (PSR sort gate)": "high polyreactivity"}]}]}
